Consider 49 substances from patent US6083917.

Several values for one entry are separate records, joined by “and”; a condition that tells them apart may be missing. Equal values may be shown once. Bounds are passed on as bounds.

The first assay addresses rat brain protein farnesyltransferase (rat).
Substance CEIM (peptide) showed a Concentration for 50% Inhibition of Farnesylation of p21^H-ras of 1.5 µM.

CGIM (peptide) had a Concentration for 50% Inhibition of Farnesylation of p21^H-ras of 4 µM.

In turn, CKIM (peptide) registered a Concentration for 50% Inhibition of Farnesylation of p21^H-ras of 0.7 µM.

For the substance CPIM (peptide), the Concentration for 50% Inhibition of Farnesylation of p21^H-ras was determined as 8 µM.

Take “CVIM with glutamic acid at the A2 position (peptide)”: the affinity for the enzyme (from 50% inhibition) was above 50 fold.

“CVIM with glycine at the A2 position (peptide)” had a Concentration for 50% Inhibition of Farnesylation of p21^H-ras of 8 µM.

Substance “CVIM with lysine at the A2 position (peptide)” returned an affinity for the enzyme (from 50% inhibition) above 50 fold.

CVPM (peptide): the Concentration for 50% Inhibition of Farnesylation of p21^H-ras was 20 µM.

Another assay shares this target. The source holds these as a separate data set.
Regarding CVIF (peptide), the Concentration for 50% Inhibition of Farnesylation of p21^H-ras turned out to be 0.5 µM.

“CVIM with glutamic acid at the X position (peptide)” displayed a Concentration for 50% Inhibition of Farnesylation of p21^H-ras above 40 µM.

As to “CVIM with glycine at the X position (peptide)”, the Concentration for 50% Inhibition of Farnesylation of p21^H-ras is above 40 µM.

In turn, “CVIM with lysine at the X position (peptide)” displayed a Concentration for 50% Inhibition of Farnesylation of p21^H-ras above 40 µM.

A further assay shares this target. The source holds these as a separate data set.
The substance CAIL (peptide) returned a Concentration for 50% Inhibition (farnesylation of p21^H-ras) of 100 µM.

In turn, CAIM (peptide) displayed a Concentration for 50% Inhibition (farnesylation of p21^H-ras) of 0.15 µM.

On to CCVQ (peptide), for which the Concentration for 50% Inhibition (farnesylation of p21^H-ras) turned out to be 0.35 µM.

The substance CIIC (peptide) yielded a Concentration for 50% Inhibition (farnesylation of p21^H-ras) of 0.35 µM.

On to CIIM (peptide), for which the Concentration for 50% Inhibition (farnesylation of p21^H-ras) amounted to 0.15 µM.

Substance CIIS (peptide) came in with a Concentration for 50% Inhibition (farnesylation of p21^H-ras) of 0.35 µM.

With CIKS (peptide), the Concentration for 50% Inhibition (farnesylation of p21^H-ras) is above 100 µM.

Regarding CLIL (peptide), the Concentration for 50% Inhibition (farnesylation of p21^H-ras) came out at 17 µM.

For the substance CLLL (peptide), the Concentration for 50% Inhibition (farnesylation of p21^H-ras) was 22 µM.

The substance CSIM (peptide) registered a Concentration for 50% Inhibition (farnesylation of p21^H-ras) of 0.2 µM.

On to CTVA (peptide), for which the Concentration for 50% Inhibition (farnesylation of p21^H-ras) was found to be 30 µM.

With CVIA (peptide), the Concentration for 50% Inhibition (farnesylation of p21^H-ras) was determined as 5 µM.

Take CVIL (peptide): the Concentration for 50% Inhibition (farnesylation of p21^H-ras) stood at 11 µM.

CVIM (peptide): the Concentration for 50% Inhibition (farnesylation of p21^H-ras) stood at 0.15 µM.

CVIS (peptide) had a Concentration for 50% Inhibition (farnesylation of p21^H-ras) of 1 µM.

CVLM (peptide) came in with a Concentration for 50% Inhibition (farnesylation of p21^H-ras) of 0.15 µM.

Substance CVLS (peptide) yielded a Concentration for 50% Inhibition (farnesylation of p21^H-ras) of 3 µM.

For the substance CVVM (peptide), the Concentration for 50% Inhibition (farnesylation of p21^H-ras) was 0.15 µM.

The target is the same in the next assay. The source holds these as a separate data set.
For CVIL (peptide), the Concentration for 50% Inhibition of Farnesylation of p21^H-ras is 12 µM.

The next assay shares this target. The source holds these as a separate data set.
For CVFM (peptide), the concentration giving 50% inhibition of farnesylation of p21^H-ras (FIG. 23A) came out at 0.07 µM.

With N-AcCVFM (peptide), the concentration giving 50% inhibition of farnesylation of p21^H-ras (FIG. 23A) worked out at 0.27 µM.

Another assay has the same target. This is another data set of the same source.
As to CCVFM (peptide), the Concentration for 50% Inhibition of Farnesylation of p21^H-ras came to 0.44 µM.

On to CVFM (peptide), for which the Concentration for 50% Inhibition of Farnesylation of p21^H-ras was 0.06 µM and 0.032 µM and 0.09 µM.

Regarding CVIM (peptide), the Concentration for 50% Inhibition of Farnesylation of p21^H-ras was 0.15 µM.

The substance CVWM (peptide) returned a Concentration for 50% Inhibition of Farnesylation of p21^H-ras of 0.32 µM.

As to KCVFM (peptide), the Concentration for 50% Inhibition of Farnesylation of p21^H-ras came to 1.1 µM.

Consider N-AcCCVFM (peptide), for which the Concentration for 50% Inhibition of Farnesylation of p21^H-ras amounted to 0.11 µM.

As to N-AcCVFM (peptide), the Concentration for 50% Inhibition of Farnesylation of p21^H-ras turned out to be 0.25 µM.

With N-AcCVIM (peptide), the Concentration for 50% Inhibition of Farnesylation of p21^H-ras was found to be 0.15 µM.

Regarding N-AcCVWM (peptide), the Concentration for 50% Inhibition of Farnesylation of p21^H-ras turned out to be 3.7 µM.

The substance N-AcDCVFM (peptide) had a Concentration for 50% Inhibition of Farnesylation of p21^H-ras of 1.9 µM.

N-AcECVFM (peptide) displayed a Concentration for 50% Inhibition of Farnesylation of p21^H-ras of 2.4 µM.

Substance N-AcGCVFM (peptide) showed a Concentration for 50% Inhibition of Farnesylation of p21^H-ras of 0.43 µM.

N-AcHCVFM (peptide) yielded a Concentration for 50% Inhibition of Farnesylation of p21^H-ras of 0.24 µM.

Consider N-AcKCVFM (peptide), for which the Concentration for 50% Inhibition of Farnesylation of p21^H-ras amounted to 0.3 µM.

For N-AcMCVFM (peptide), the Concentration for 50% Inhibition of Farnesylation of p21^H-ras amounted to 1.4 µM.

Consider N-AcPCVFM (peptide), for which the Concentration for 50% Inhibition of Farnesylation of p21^H-ras stood at 0.2 µM.

N-AcSCVFM (peptide) had a Concentration for 50% Inhibition of Farnesylation of p21^H-ras of 0.23 µM.

N-CholylCVFM (peptide) yielded a Concentration for 50% Inhibition of Farnesylation of p21^H-ras of 0.21 µM.

In turn, N-Octanoyl-CVFM (peptide) had a Concentration for 50% Inhibition of Farnesylation of p21^H-ras of 0.35 µM.

A further assay has the same target. This is another data set of the same source.
CVFM (peptide) had an affinity for the enzyme relative to CVIM (from 50% inhibition) of 6 fold and a half-maximal inhibition of farnesylation of p21^H-ras of 25 nM.

The next assay has the same target. This is another data set of the same source.
With CVAM (peptide), the affinity for the enzyme as estimated by the concentration required for 50% inhibition is above 30 fold.

As for CVIA (peptide), the affinity for the enzyme as estimated by the concentration required for 50% inhibition is above 30 fold.

With “CVIM with lysine at the A2 position (peptide)”, the affinity for the enzyme as estimated by the concentration required for 50% inhibition was above 30 fold.

For “CVIM with lysine at the X position (peptide)”, the affinity for the enzyme as estimated by the concentration required for 50% inhibition was above 30 fold.
